Experimental data as given in US20200157212A1 (Pfizer, published 2020).
Where a chain is given by its changes, count along the chain named.

What was measured:
[1] = target: T1, Terbium (Tb) labeled-SNAP tagged ROBO2 expressed on HEK293 cells (Homo sapiens (Human), UniProt Q9HCK4 22-1378, terbium label on the SNAP tag); test: HTRF competition, competitor d2-SLIT2-N, ROBO2 HEK293 cells
T1 construct: also called Tb-labeled ROBO2 cells; ROBO2 expressing cells; not shown: SNAP tag
T1 sequence: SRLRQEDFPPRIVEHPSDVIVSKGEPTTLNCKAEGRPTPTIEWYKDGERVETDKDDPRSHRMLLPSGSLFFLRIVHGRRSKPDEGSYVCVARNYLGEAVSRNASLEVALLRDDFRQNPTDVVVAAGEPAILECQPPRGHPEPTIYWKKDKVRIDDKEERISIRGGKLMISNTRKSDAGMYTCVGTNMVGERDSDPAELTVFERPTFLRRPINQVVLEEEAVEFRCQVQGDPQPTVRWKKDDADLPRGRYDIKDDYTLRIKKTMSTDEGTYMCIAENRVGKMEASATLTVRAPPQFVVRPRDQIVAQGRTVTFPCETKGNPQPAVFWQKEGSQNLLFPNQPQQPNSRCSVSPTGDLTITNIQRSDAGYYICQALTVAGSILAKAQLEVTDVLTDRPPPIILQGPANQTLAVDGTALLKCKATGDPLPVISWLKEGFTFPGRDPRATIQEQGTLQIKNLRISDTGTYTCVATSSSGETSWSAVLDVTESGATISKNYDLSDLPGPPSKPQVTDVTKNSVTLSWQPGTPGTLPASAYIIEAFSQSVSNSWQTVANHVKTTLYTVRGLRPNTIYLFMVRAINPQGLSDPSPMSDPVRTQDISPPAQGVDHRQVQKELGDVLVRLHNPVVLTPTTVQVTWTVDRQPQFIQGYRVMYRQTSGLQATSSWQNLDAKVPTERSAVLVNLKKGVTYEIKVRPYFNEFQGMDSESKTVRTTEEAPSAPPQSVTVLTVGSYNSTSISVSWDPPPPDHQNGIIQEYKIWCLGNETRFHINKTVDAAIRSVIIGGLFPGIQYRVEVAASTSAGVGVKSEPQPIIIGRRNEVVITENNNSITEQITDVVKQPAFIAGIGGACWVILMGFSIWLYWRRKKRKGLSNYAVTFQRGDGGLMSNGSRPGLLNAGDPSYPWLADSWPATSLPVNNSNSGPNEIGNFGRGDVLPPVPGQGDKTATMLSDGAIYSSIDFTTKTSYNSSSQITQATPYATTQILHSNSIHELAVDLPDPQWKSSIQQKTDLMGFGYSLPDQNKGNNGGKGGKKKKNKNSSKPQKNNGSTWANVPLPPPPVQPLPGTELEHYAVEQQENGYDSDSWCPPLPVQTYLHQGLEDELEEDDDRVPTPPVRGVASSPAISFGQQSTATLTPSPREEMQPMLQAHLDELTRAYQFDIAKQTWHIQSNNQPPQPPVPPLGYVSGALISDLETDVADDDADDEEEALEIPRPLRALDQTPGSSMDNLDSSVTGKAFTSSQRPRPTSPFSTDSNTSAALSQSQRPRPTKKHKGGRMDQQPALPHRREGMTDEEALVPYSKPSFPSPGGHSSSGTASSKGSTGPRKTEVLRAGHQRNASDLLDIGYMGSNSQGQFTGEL
Experimental: A ROBO2-SLIT2-N homogenous time resolved fluorescence (HTRF) assay was used to identify antibodies that were capable of blocking SLIT2-N binding to ROBO2. In this assay, terbium (Tb) labeled-SNAP tagged ROBO2 expressing HEK293 cells were incubated with 5 nM d2-labeled SLIT-2N in the presence of 1 nM anti-ROBO2 antibodies for 1 hour. After incubation, fluorescence at 665 nm and 620 nm was measured on an Envision multilabel plate reader. […] Maximal signal was defined as the HTRF ratio of Tb-labeled ROBO2 cells with d2-labeled SLIT2-N in the absence of antibody, the minimum signal was defined as the HTRF ratio of Tb-labeled ROBO2 expressing HEK293 cells only. One nanomolar (nM) parental antibody, 93H2, was unable to block the HTRF assay, therefore this concentration was selected to identify clones with a higher affinity than 93H2 (Table 2, HTRF Ratio column). […] Antibodies derived from chain (Abcs series) or CDR shuffling (CTIR-2 series) were evaluated in 11-point, 5-fold dilution series with a top concentration of 1500 nM (Table 2 HTRF IC₅₀).
Neutralization of SLIT2-N binding to ROBO2 was assessed ROBO2:SLIT2-N homogenous time resolved fluorescence (HTRF) assay as described in Example 2. Briefly the HTRF assay was performed as follows: terbium (Tb) labeled-SNAP tagged ROBO2 expressing HEK293 cells were incubated with d2-labeled SLIT-2N in the presence of anti-ROBO2 antibodies for 1 hour. After incubation, fluorescence at 665 nm and 620 nm was measured on an Envision multi-label plate reader. […] Maximal signal was defined as the HTRF ratio of Tb-labeled ROBO2 cells with d2-labeled SLIT2-N in the absence of antibody, the minimum signal was defined as the HTRF ratio of Tb-labeled ROBO2 expressing HEK293 cells only.

Human ROBO2 Ig1-Ig2-His = target: T2, Human ROBO2 Ig1-Ig2-His (human, UniProt Q9HCK4 31-220); test: SPR, antibody on CM5 chip, ROBO2 Ig1-Ig2-His
T2 construct: the His tag is named only in the SPR paragraphs; the Octet and ELISA paragraphs print 'ROBO2 Ig1-Ig2' without a tag; also called ROBO2 Ig1-2; Human ROBO2 Ig 1,2
T2 sequence: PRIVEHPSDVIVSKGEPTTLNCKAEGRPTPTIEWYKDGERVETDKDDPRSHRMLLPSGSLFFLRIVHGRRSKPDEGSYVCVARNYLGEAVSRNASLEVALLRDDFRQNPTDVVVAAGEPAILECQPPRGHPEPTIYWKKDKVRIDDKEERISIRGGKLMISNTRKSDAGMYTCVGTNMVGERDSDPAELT
Experimental: Based upon several criteria, Abcs25 and Abcs35 were selected for further characterization. Using flow cytometry, improvement in the binding EC₅₀ to human ROBO2 relative to the parental 93H2 was evaluated. Starting at 6.7 nM, 11-point, 3-fold dilution series were made for each antibody and used to stain HEK293 overexpressing human ROBO2 as described above for the ROBO2 fold selectivity (Example 2). […] In addition to measuring improved binding to human ROBO2, it was important to ensure that high affinity binding to both cynomolgus monkey ROBO2 and rat ROBO2 was maintained. Using HEK293 cells overexpressing either cynomolgus monkey ROBO2 or rat ROBO2, the relative dose-dependent binding of 93H2, Abcs25 and Abcs35 was evaluated as described above. High affinity binding to both cynomolgus monkey and rat ROBO2 was maintained in Abcs25 and Abcs35 (Table 4). […] Briefly, Abcs35 was immobilized to 300 resonance units (RU) on a CM5 chip. Association of ROBO2 Ig1-Ig2-His (ROBO2) was measured over 5 minutes and dissociation was followed for a period of 10 minutes.
Affinity was measured by standard SPR methods as described in Example 3. Briefly, antibodies were immobilized to a specific measure of resonance units (RU) on a CM5 chip. Association of ROBO2 Ig1-Ig2-His (ROBO2) and dissociation will be followed for a period of time.

B1: Abcs35 (antibody, human IgG1, kappa)
heavy: EVQLVQSGAEVKKPGASVKVSCKASGYTFTGYYMHWVRQAPGQGLEWMGWINPKNGDTEFPQKFQGRVTMTRDTSITTAYMDLSRLRSDDTAVYYCARESGDDAFDIWGQGTMVTVSSASTKGPSVFPLAPSSKSTSGGTAALGCLVKDYFPEPVTVSWNSGALTSGVHTFPAVLQSSGLYSLSSVVTVPSSSLGTQTYICNVNHKPSNTKVDKKVEPKSCDKTHTCPPCPAPEAAGAPSVFLFPPKPKDTLMISRTPEVTCVVVDVSHEDPEVKFNWYVDGVEVHNAKTKPREEQYNSTYRVVSVLTVLHQDWLNGKEYKCKVSNKALPAPIEKTISKAKGQPREPQVYTLPPSREEMTKNQVSLTCLVKGFYPSDIAVEWESNGQPENNYKTTPPVLDSDGSFFLYSKLTVDKSRWQQGNVFSCSVMHEALHNHYTQKSLSLSPGK
light: DIVMTQSPSSLSASVGDRVTITCRASQSISSYLNWYQQKPGKAPKLLIYAASSLQSGVPSRFSGSGSGTDFTLTISSLQPEDFATYYCQQSVGLFFGGGTKVEIKRTVAAPSVFIFPPSDEQLKSGTASVVCLLNNFYPREAKVQWKVDNALQSGNSQESVTEQDSKDSTYSLSSTLTLSKADYEKHKVYACEVTHQGLSSPVTKSFNRGEC
notes: fully human IgG1; VH of Ab96 with VL of Ab123
Q: With B1 as the binder, how does the IC50 [1] read?
A: 76.1 pM

Q: What about the Kd (Human ROBO2 Ig1-Ig2-His) of the same binder?
A: 85.7 pM

B2: Abcs35-J (antibody, human IgG1, kappa)
heavy: B1 heavy with D82E
light: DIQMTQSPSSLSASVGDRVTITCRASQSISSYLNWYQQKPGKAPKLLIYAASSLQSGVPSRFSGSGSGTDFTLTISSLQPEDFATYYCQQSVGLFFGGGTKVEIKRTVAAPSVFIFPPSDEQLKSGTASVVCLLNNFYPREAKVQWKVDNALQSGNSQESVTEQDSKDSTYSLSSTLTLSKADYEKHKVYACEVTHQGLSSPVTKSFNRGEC
notes: germlined variant of Abcs35; also called ABCS-J
Q: B2 was tested. Which IC50 [1] did it give?
A: 74.4 pM

Q: What about the Kd (Human ROBO2 Ig1-Ig2-His) of the same binder?
A: 93.9 pM
